Results on two molecules are retold here after patent publication US20240199757A1 (UNIVERSITY OF CHICAGO, published 2024).

Data set [1] deals with T1, Full-length human NT5E (recombinant, in-house) (human, UniProt P21589 27-549).
T1 construct: also called hNT5E; hNT5EWT
T1 sequence: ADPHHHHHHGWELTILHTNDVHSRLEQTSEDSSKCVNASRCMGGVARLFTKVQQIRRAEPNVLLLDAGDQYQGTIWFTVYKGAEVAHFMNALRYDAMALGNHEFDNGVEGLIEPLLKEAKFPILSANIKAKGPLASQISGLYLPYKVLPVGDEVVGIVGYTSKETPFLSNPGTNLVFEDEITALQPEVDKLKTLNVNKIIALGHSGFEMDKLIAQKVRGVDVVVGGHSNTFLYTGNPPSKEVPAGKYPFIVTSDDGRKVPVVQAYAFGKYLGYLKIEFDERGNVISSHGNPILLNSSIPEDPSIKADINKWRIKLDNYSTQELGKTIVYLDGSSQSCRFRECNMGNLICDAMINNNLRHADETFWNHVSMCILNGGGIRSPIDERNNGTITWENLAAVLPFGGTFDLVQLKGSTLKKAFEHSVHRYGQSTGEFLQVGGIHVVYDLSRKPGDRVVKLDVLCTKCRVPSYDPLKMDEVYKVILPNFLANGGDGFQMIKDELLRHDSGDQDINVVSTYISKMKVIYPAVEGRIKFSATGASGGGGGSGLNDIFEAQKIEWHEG
Kind of data set: DSF thermal shift, 1.5-fold molar excess of Fab, no ATP (NT5E alone 49° C.). As for the experimental part:
Thermal stability of samples was analyzed by differential scanning fluorimetry (DSF) using a real-time PCR instrument (Bio-Rad CFX384). Protein samples were mixed with 4× Sypro Orange at a final 4 μM concentration. For target/Fab complexes, 1.5-fold molar excess of Fab was used. All reactions were performed in triplicates in a 384-well plate. Thermal melting curves were monitored from 25° C. to 95° C. in steps of 0.5° C./30 s. Wavelengths of 490 and 575 nm were used for excitation and emission, respectively. The melting temperatures were inferred from the first derivative of the melting curves from the mean of triplicate runs using CFX software provided by the manufacturer.
TABLE 6 Summary of TM for hNT5EWT hNT5EDF, and hNT5E by differential scanning fluorimetry. […] Melting temperatures (TM) are for NT5E only and are represented by the mean of three replicates.

Data set [2] deals with T2, human NT5E expressed on MDA-MB-231 cells (human, UniProt P21589 27-549).
T2 construct: whole, on cells; also called NT5E-expressing MDA-MB-231 cells; CD73
T2 sequence (looked up): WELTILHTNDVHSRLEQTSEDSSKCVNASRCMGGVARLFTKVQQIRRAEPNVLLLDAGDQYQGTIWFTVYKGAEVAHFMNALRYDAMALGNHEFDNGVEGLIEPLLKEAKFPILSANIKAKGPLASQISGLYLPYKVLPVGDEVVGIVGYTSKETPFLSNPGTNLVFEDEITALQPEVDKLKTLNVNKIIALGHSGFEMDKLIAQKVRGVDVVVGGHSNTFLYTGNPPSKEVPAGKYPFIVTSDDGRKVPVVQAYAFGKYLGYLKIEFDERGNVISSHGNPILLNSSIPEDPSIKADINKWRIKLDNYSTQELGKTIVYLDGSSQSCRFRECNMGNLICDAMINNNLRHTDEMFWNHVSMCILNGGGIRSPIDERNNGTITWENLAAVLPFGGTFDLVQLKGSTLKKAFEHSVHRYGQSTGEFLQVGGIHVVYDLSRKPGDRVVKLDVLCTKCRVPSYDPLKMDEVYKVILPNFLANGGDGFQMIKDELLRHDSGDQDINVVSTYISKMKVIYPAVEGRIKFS
Kind of data set: flow cytometry on MDA-MB-231 cells, PBS without ATP; -ATP (PBS alone), MDA-MB-231 cells. As for the experimental part: Flow cytometry analysis of antibodies binding to human NT5E expressed on MDA-MB-231 cells in ATP-free condition (black) or in 1 mM ATP (red). Top panel: (left) 1780 Fab and (right) 1780 IgG titrations. […] Binding was measured at the indicated range of antibody concentrations and is expressed as mean±st. dev of median fluorescence intensity (MFI) of 1-2 replicates. Data were analyzed using OriginLab, and EC₅₀ values are shown next to the fitted curves.
Human MDA-MB-231 cells and murine 4T1 cells were grown to 90% confluency, detached with 5 mM EDTA for 15 min at 37° C. and then resuspended in 37° C. lx PBS (#10010031, Gibco) supplemented with 1% FBS and 1OpM ZnCl2. Separate working buffers (WB) of PBS and 1% FBS with or without fixed nucleotide concentrations were used throughout all washing steps to maintain constant condition. In 96-well plates (#3799, Costar), 0.2×10⁶ cells were added per well. The plates were spun at 500×g for 5 min and the supernatant was removed. Anti-NT5E antibodies were diluted to the desired concentration in 100 μL WB, added to the cells and the plates were incubated for 20 min at 37° C. Plates were spun and cells were washed twice with WB then spun a second time. […] Samples were analyzed by flow cytometry using CytoFLEX (Beckman Coulter) and mean fluorescence intensity (MFI) data was extracted using FlowJo software. […]
For orientation: In flow cytometry, cells or beads pass a laser one at a time.

B1: 1789 Fab (Fab, V domains shown)
VH: EVQLVESGGGLVQPGGSLRLSCAASGFNVSYSSIHWVRQAPGKGLEWVASISSSSGYTYYADSVKGRFTISADTSKNTAYLQMNSLRAEDTAVYYCARNYWGWYPFYYFAFDYWGQGTLVTV
VL: DIQMTQSPSSLSASVGDRVTITCRASQSVSSAVAWYQQKPGKAPKLLIYSASSLYSGVPSRFSGSRSGTDFTLTISSLQPEDFATYYCQQGWDYPITFGQGTKVEIKR
Turning to B1, the “TM of NT5E in the presence of the Fab” value in data set [1] came out at 48 ° C.

B2: 1789 IgG (antibody, V domains shown)
VH: EVQLVESGGGLVQPGGSLRLSCAASGFNVSYSSIHWVRQAPGKGLEWVASISSSSGYTYYADSVKGRFTISADTSKNTAYLQMNSLRAEDTAVYYCARNYWGWYPFYYFAFDYWGQGTLVTVSS
VL: DIQMTQSPSSLSASVGDRVTITCRASQSVSSAVAWYQQKPGKAPKLLIYSASSLYSGVPSRFSGSRSGTDFTLTISSLQPEDFATYYCQQGWDYPITFGQGTKVEIKR
What is called EC50 is the concentration that produces a half-maximal response. Low readings indicate greater potency, high ones weaker potency. Regarding B2, it took 124 nM to reach a half-maximal effect in data set [2] (EC50).
